Article PMC11253611, “The chaperone PrsA2 regulates the secretion, stability, and folding of listeriolysin O during Listeria monocytogenes infection” (mBio, 2024)

Legend:
[1] = biological target: recombinant listeriolysin O (without the signal sequence, 25-529) (Listeria monocytogenes 10403S) (UniProt P13128); test: ITC; pH 6.5, 25°C; PrsA2 (19.0 µM) or mutant titrated into LLO (0.4 µM); 20 mM MES, 100 mM NaCl, 1 mM β-mercaptoethanol, 10% glycerol; independent binding model; n counts PrsA2 monomers per LLO
[2] = biological target: recombinant listeriolysin O (without the signal sequence, 25-529) (Listeria monocytogenes 10403S) (UniProt P13128); test: MST; pH 6.5, 25°C; NHS-dye-labelled PrsA2 or mutant (20-150 nM) with serially diluted unlabelled LLO; 20 mM MES, 100 mM NaCl, 1 mM β-mercaptoethanol, 10% glycerol, 0.05% Tween 20; 1:1 model in PALMIST
[3] = biological target: T1, recombinant listeriolysin O (without the signal sequence, 25-529) (Listeria monocytogenes 10403S, UniProt P13128 25-529); test: ITC; pH 5.5, 37°C; PrsA2 titrated into LLO; 20 mM MES, 100 mM NaCl, 1 mM β-mercaptoethanol, 10% glycerol; independent binding model; n counts PrsA2 monomers per LLO; details: both partners purified
T1 construct: also called LLO; source: E. coli BL21 (DE3*), purified (nickel-NTA, dialysis)

[4] = biological target: T1, recombinant listeriolysin O (without …); test: ITC; pH 7.4, 37°C; PrsA2 titrated into LLO at low LLO concentrations to mitigate heats of self-aggregation; 20 mM MES, 100 mM NaCl, 1 mM β-mercaptoethanol, 10% glycerol; independent binding model; n counts PrsA2 monomers per LLO; details: both partners purified
[5] = biological target: T1, recombinant listeriolysin O (without …); test: ITC; pH 6.5, 37°C; PrsA2 titrated into LLO; 20 mM MES, 100 mM NaCl, 1 mM β-mercaptoethanol, 10% glycerol; independent binding model; n counts PrsA2 monomers per LLO; details: both partners purified
[6] = biological target: T1, recombinant listeriolysin O (without …); test: ITC; pH 6.5, 25°C; PrsA2 (19.0 µM) or mutant titrated into LLO (0.4 µM); 20 mM MES, 100 mM NaCl, 1 mM β-mercaptoethanol, 10% glycerol; independent binding model; n counts PrsA2 monomers per LLO; details: both partners purified
[7] = biological target: the molecule itself; test: cross-linking; 500 ng His-tagged protein with 10 µM BS3 for 1 hour at room temperature in 20 mM HEPES, 200 mM NaCl, pH 6.5; heated at 85°C, SDS-PAGE, anti-His Western blot
[8] = biological target: T1, recombinant listeriolysin O (without …); test: MST; pH 6.5, 25°C; NHS-dye-labelled PrsA2 or mutant (20-150 nM) with serially diluted unlabelled LLO; 20 mM MES, 100 mM NaCl, 1 mM β-mercaptoethanol, 10% glycerol, 0.05% Tween 20; 1:1 model in PALMIST; details: both partners purified
[9] = biological target: T1, recombinant listeriolysin O (without …); test: ITC; pH 6.5, 25°C; PrsA2 (19.0 µM) or mutant titrated into LLO (0.4 µM); 20 mM MES, 100 mM NaCl, 1 mM β-mercaptoethanol, 10% glycerol; independent binding model; n counts PrsA2 monomers per LLO; details: both partners purified; remark: listed apart in the source
[10] = biological target: T1, recombinant listeriolysin O (without …); test: MST; pH 5.5, 37°C; NHS-dye-labelled PrsA2 (20-150 nM) with serially diluted unlabelled LLO; 20 mM MES, 100 mM NaCl, 1 mM β-mercaptoethanol, 10% glycerol, 0.05% Tween 20; 1:1 model in PALMIST; details: both partners purified
[11] = biological target: T1, recombinant listeriolysin O (without …); test: ITC; pH 5.5, 25°C; PrsA2 titrated into LLO; 20 mM MES, 100 mM NaCl, 1 mM β-mercaptoethanol, 10% glycerol; independent binding model; n counts PrsA2 monomers per LLO; details: both partners purified
[12] = biological target: T1, recombinant listeriolysin O (without …); test: MST; pH 6.5, 37°C; NHS-dye-labelled PrsA2 (20-150 nM) with serially diluted unlabelled LLO; 20 mM MES, 100 mM NaCl, 1 mM β-mercaptoethanol, 10% glycerol, 0.05% Tween 20; 1:1 model in PALMIST; details: both partners purified
[13] = biological target: T1, recombinant listeriolysin O (without …); test: MST; pH 5.5, 25°C; NHS-dye-labelled PrsA2 (20-150 nM) with serially diluted unlabelled LLO; 20 mM MES, 100 mM NaCl, 1 mM β-mercaptoethanol, 10% glycerol, 0.05% Tween 20; 1:1 model in PALMIST; details: both partners purified
[14] = biological target: T1, recombinant listeriolysin O (without …); test: MST; pH 7.4, 25°C; NHS-dye-labelled PrsA2 (20-150 nM) with serially diluted unlabelled LLO; 20 mM MES, 100 mM NaCl, 1 mM β-mercaptoethanol, 10% glycerol, 0.05% Tween 20; 1:1 model in PALMIST; details: both partners purified
[15] = biological target: T1, recombinant listeriolysin O (without …); test: MST; pH 7.4, 37°C; NHS-dye-labelled PrsA2 (20-150 nM) with serially diluted unlabelled LLO; 20 mM MES, 100 mM NaCl, 1 mM β-mercaptoethanol, 10% glycerol, 0.05% Tween 20; 1:1 model in PALMIST; details: both partners purified
[16] = biological target: T1, recombinant listeriolysin O (without …); test: ITC; pH 7.4, 25°C; PrsA2 titrated into LLO; 20 mM MES, 100 mM NaCl, 1 mM β-mercaptoethanol, 10% glycerol; independent binding model; n counts PrsA2 monomers per LLO; details: both partners purified
[17] = biological target: T1, recombinant listeriolysin O (without …); test: MST; pH 6.5, 25°C; NHS-dye-labelled PrsA2 or mutant (20-150 nM) with serially diluted unlabelled LLO; 20 mM MES, 100 mM NaCl, 1 mM β-mercaptoethanol, 10% glycerol, 0.05% Tween 20; 1:1 model in PALMIST; details: both partners purified; remark: listed apart in the source
[18] = biological target: T1, recombinant listeriolysin O (without …); test: cell-based or functional assay
[19] = biological target: T1, recombinant listeriolysin O (without …); test: ITC; pH 6.5, 25°C; PrsA2 (19.0 µM) or mutant titrated into LLO (0.4 µM); 20 mM MES, 100 mM NaCl, 1 mM β-mercaptoethanol, 10% glycerol; independent binding model; n counts PrsA2 monomers per LLO; details: both partners purified; remark: listed apart in the source
[20] = biological target: T1, recombinant listeriolysin O (without …); test: MST; pH 6.5, 25°C; NHS-dye-labelled PrsA2 or mutant (20-150 nM) with serially diluted unlabelled LLO; 20 mM MES, 100 mM NaCl, 1 mM β-mercaptoethanol, 10% glycerol, 0.05% Tween 20; 1:1 model in PALMIST; details: both partners purified; remark: listed apart in the source

Question: With “PrsA2 N+C (foldase domain only, lacks the entire PPIase domain) (from UniProt Q8Y557 21-293) (domain or fragment)” as the molecule, how does the Kd [1] read?
Answer: The Kd was 357 nM.

Question: And the dH [1]?
Answer: The dH was -16.6 kcal/mol.

Question: What about the stoichiometry N [1] of the same molecule?
Answer: The stoichiometry N was 2.08.

Question: What about the Kd [2] of the same molecule?
Answer: Its Kd is 330 nM.

B1: recombinant PrsA2 (wild type, without the signal sequence) (natural protein)
chain: CGGGGDVVKTDSGDVTKDELYDAMKDKYGSEFVQQLTFEKILGDKYKVSDEDVDKKFNEYKSQYGDQFSAVLTQSGLTEKSFKSQLKYNLLVQKATEANTDTSDKTLKKYYETWQPDITVSHILVADENKAKEVEQKLKDGEKFADLAKEYSTDTATKDNGGQLAPFGPGKMDPAFEKAAYALKNKGDISAPVKTQYGYHIIQMDKPATKTTFEKDKKAVKASYLESQLTTENMQKTLKKEYKDANVKVEDKDLKDAFKDFDGSSSSDSDSSK
notes: also called Lm PrsA2; pQE60-prsA2; source: E. coli BL21 (DE3*), purified (nickel-NTA, dialysis)
Question: With B1 as the molecule, how does the Kd [3] read?
Answer: Its Kd is 330 nM.

Question: And the dH [3]?
Answer: The dH was -5.49 kcal/mol.

Question: And the “stoichiometry N” value [3]?
Answer: The value was 1.95.

Question: What about the Kd [4] of the same molecule?
Answer: Its Kd is 67.2 nM.

Question: And the dH [4]?
Answer: Its dH is -12.8 kcal/mol.

Question: And the “stoichiometry N” value [4]?
Answer: The value was 2.01.

Question: What about the Kd [5] of the same molecule?
Answer: The Kd was 88.3 nM.

Question: What about the dH [5] of the same molecule?
Answer: The dH was -30.9 kcal/mol.

Question: What about the “stoichiometry N” value [5] of the same molecule?
Answer: The value was 1.73.

Question: What about the Kd [6] of the same molecule?
Answer: Its Kd is 37.7 nM.

Question: And the dH [6]?
Answer: The dH was -105 kcal/mol.

Question: And the “stoichiometry N” value [6]?
Answer: The value was 2.21.

Question: And the “stoichiometry N” value [7]?
Answer: Its value is 2.

Question: What about the Kd [8] of the same molecule?
Answer: The Kd was 12 nM.

Question: And the Ka [9]?
Answer: The Ka was 2.65e+07 M⁻¹.

Question: And the Kd [9]?
Answer: The Kd was 37.8 nM.

Question: What about the Kd [10] of the same molecule?
Answer: Its Kd is 190 nM.

Question: And the Kd [11]?
Answer: Its Kd is 201 nM.

Question: And the dH [11]?
Answer: Its dH is -7.93 kcal/mol.

Question: And the “stoichiometry N” value [11]?
Answer: Its value is 1.96.

Question: And the Kd [12]?
Answer: The Kd was 28 nM.

Question: What about the Kd [13] of the same molecule?
Answer: The Kd was 150 nM.

Question: And the Kd [14]?
Answer: The Kd was 23 nM.

Question: And the Kd [15]?
Answer: The Kd was 39 nM.

Question: And the Kd [16]?
Answer: The Kd was 46.1 nM.

Question: What about the dH [16] of the same molecule?
Answer: Its dH is -21.7 kcal/mol.

Question: What about the “stoichiometry N” value [16] of the same molecule?
Answer: The value was 2.11.

B2: PrsA2 V91T (natural protein, Listeria monocytogenes, UniProt Q8Y557 21-293, looked up)
chain: CGGGGDVVKTDSGDVTKDELYDAMKDKYGSEFVQQLTFEKILGDKYKVSDEDVDKKFNEYKSQYGDQFSATLTQSGLTEKSFKSQLKYNLLVQKATEANTDTSDKTLKKYYETWQPDITVSHILVADENKAKEVEQKLKDGEKFADLAKEYSTDTATKDNGGQLAPFGPGKMDPAFEKAAYALKNKGDISAPVKTQYGYHIIQMDKPATKTTFEKDKKAVKASYLESQLTTENMQKTLKKEYKDANVKVEDKDLKDAFKDFDGSSSSDSDSSK
modifications: Red NHS dye (NanoTemper 2nd Generation) on primary amines, in the MST experiments only
notes: Same limits and tag as m1; also called foldase domain mutant; source: E. coli BL21 (DE3*), purified (nickel-NTA, dialysis)
Question: With B2 as the molecule, how does the Kd [17] read?
Answer: Its Kd is 2.8 nM.

Question: What about the “LLO hemolytic activity at pH 5.5 and 30°C after 1 hour at pH 7.4 and 37°C with the chaperone mutant at a 30:1 molar ratio (protection assay), against wild-type PrsA2 or PrsA2 N+C” value [18] of the same molecule?
Answer: The value was ~2 fold.

Question: What about the Kd [19] of the same molecule?
Answer: The Kd was 9.64 nM.

Question: What about the dH [19] of the same molecule?
Answer: Its dH is -4.21 kcal/mol.

Question: What about the “stoichiometry N” value [19] of the same molecule?
Answer: Its value is 2.11.

B3: PrsA2 No dimer mutant/PrsA2^M (V28A/L40A/Y41A/M44A) (natural protein, Listeria monocytogenes, UniProt Q8Y557 21-293, looked up)
chain: CGGGGDVAKTDSGDVTKDEAADAAKDKYGSEFVQQLTFEKILGDKYKVSDEDVDKKFNEYKSQYGDQFSAVLTQSGLTEKSFKSQLKYNLLVQKATEANTDTSDKTLKKYYETWQPDITVSHILVADENKAKEVEQKLKDGEKFADLAKEYSTDTATKDNGGQLAPFGPGKMDPAFEKAAYALKNKGDISAPVKTQYGYHIIQMDKPATKTTFEKDKKAVKASYLESQLTTENMQKTLKKEYKDANVKVEDKDLKDAFKDFDGSSSSDSDSSK
modifications: Red NHS dye (NanoTemper 2nd Generation) on primary amines, in the MST experiments only
notes: Same limits and tag as m1; also called PrsA2 monomer; PrsA2 dimer mutant; source: E. coli BL21 (DE3*), purified (nickel-NTA, dialysis)
Question: With B3 as the molecule, how does the Kd [17] read?
Answer: Its Kd is 190 nM.

Question: What about the “LLO hemolytic activity at pH 5.5 and 30°C after 1 hour at pH 7.4 and 37°C with the chaperone mutant at a 30:1 molar ratio (protection assay), against wild-type PrsA2 or PrsA2 N+C” value [18] of the same molecule?
Answer: Its value is ~2 fold.

Question: And the Kd [20]?
Answer: The Kd was ~330 nM.

Question: What about the Kd [19] of the same molecule?
Answer: Its Kd is 206 nM.

Question: What about the dH [19] of the same molecule?
Answer: Its dH is -21.3 kcal/mol.

Question: What about the “stoichiometry N” value [19] of the same molecule?
Answer: The value was 2.06.
